Numbered stars: 1 amine (or outer) side, 2 acyl side, 3 side chain; on linkers, the order of the positions; unused ones are H or OH. Bridge positions count the residues as written; N and C are the ends. Square brackets hold non-standard residues; d marks the D form. Side chains are listed from the residue outwards. * marks the point of attachment. DOTA = O=C(O)CN1CCN(CC(=O)O)CCN(CC(=O)*)CCN(CC(=O)O)CC1; Phe(4-CF3) = N[C@@H](Cc1ccc(C(F)(F)F)cc1)C(=O)O; Trp(7-aza) = N[C@@H](Cc1c[nH]c2ncccc12)C(=O)O; Pro(4,4-F2) = O=C(O)[C@@H]1CC(F)(F)CN1; γGlu = O=C(O)[C@H](CCC(=O)[*:2])N[*:1]; 1Nal = N[C@@H](Cc1cccc2ccccc12)C(=O)O; 2Nal = N[C@@H](Cc1ccc2ccccc2c1)C(=O)O; hPhe = N[C@@H](CCc1ccccc1)C(=O)O; tBuAla = CC(C)(C)C[C@H](N)C(=O)O; Cha = N[C@@H](CC1CCCCC1)C(=O)O; NMeL = CN[C@@H](CC(C)C)C(=O)O; Cba = N[C@@H](CC1CCC1)C(=O)O; Chg = N[C@H](C(=O)O)C1CCCCC1; αMeP = C[C@@]1(C(=O)O)CCCN1; Nle = CCCC[C@H](N)C(=O)O; dNMeA = CN[C@H](C)C(=O)O; Ahx = NCCCCCC(=O)O
B1: Cpd #50 (peptide)
peptide: Ac-MSDCWLQWNC[dNMeA]FD[dK](DOTA)-NH2
modifications: disulfide 4-10
SMILES: CSCC[C@H](NC(C)=O)C(=O)N[C@@H](CO)C(=O)N[C@@H](CC(=O)O)C(=O)N[C@H]1CSSC[C@@H](C(=O)N(C)[C@H](C)C(=O)N[C@@H](Cc2ccccc2)C(=O)N[C@@H](CC(=O)O)C(=O)N[C@H](CCCCNC(=O)CN2CCN(CC(=O)O)CCN(CC(=O)O)CCN(CC(=O)O)CC2)C(N)=O)NC(=O)[C@H](CC(N)=O)NC(=O)[C@H](Cc2c[nH]c3ccccc23)NC(=O)[C@H](CCC(N)=O)NC(=O)[C@H](CC(C)C)NC(=O)[C@H](Cc2c[nH]c3ccccc23)NC1=O
B2: Cpd #61 (peptide)
peptide: Ac-MSDCWLQ[1Nal]NCPFD[dK](DOTA)-NH2
modifications: disulfide 4-10
SMILES: CSCC[C@H](NC(C)=O)C(=O)N[C@@H](CO)C(=O)N[C@@H](CC(=O)O)C(=O)N[C@H]1CSSC[C@@H](C(=O)N2CCC[C@H]2C(=O)N[C@@H](Cc2ccccc2)C(=O)N[C@@H](CC(=O)O)C(=O)N[C@H](CCCCNC(=O)CN2CCN(CC(=O)O)CCN(CC(=O)O)CCN(CC(=O)O)CC2)C(N)=O)NC(=O)[C@H](CC(N)=O)NC(=O)[C@H](Cc2cccc3ccccc23)NC(=O)[C@H](CCC(N)=O)NC(=O)[C@H](CC(C)C)NC(=O)[C@H](Cc2c[nH]c3ccccc23)NC1=O
B3: Cpd #62 (peptide)
peptide: Ac-MSDCWLQ[2Nal]NCPFD[dK](DOTA)-NH2
modifications: disulfide 4-10
SMILES: CSCC[C@H](NC(C)=O)C(=O)N[C@@H](CO)C(=O)N[C@@H](CC(=O)O)C(=O)N[C@H]1CSSC[C@@H](C(=O)N2CCC[C@H]2C(=O)N[C@@H](Cc2ccccc2)C(=O)N[C@@H](CC(=O)O)C(=O)N[C@H](CCCCNC(=O)CN2CCN(CC(=O)O)CCN(CC(=O)O)CCN(CC(=O)O)CC2)C(N)=O)NC(=O)[C@H](CC(N)=O)NC(=O)[C@H](Cc2ccc3ccccc3c2)NC(=O)[C@H](CCC(N)=O)NC(=O)[C@H](CC(C)C)NC(=O)[C@H](Cc2c[nH]c3ccccc23)NC1=O
B4: Cpd #63 (peptide)
peptide: Ac-MSDCWLQ[hPhe]NCPFD[dK](DOTA)-NH2
modifications: disulfide 4-10
SMILES: CSCC[C@H](NC(C)=O)C(=O)N[C@@H](CO)C(=O)N[C@@H](CC(=O)O)C(=O)N[C@H]1CSSC[C@@H](C(=O)N2CCC[C@H]2C(=O)N[C@@H](Cc2ccccc2)C(=O)N[C@@H](CC(=O)O)C(=O)N[C@H](CCCCNC(=O)CN2CCN(CC(=O)O)CCN(CC(=O)O)CCN(CC(=O)O)CC2)C(N)=O)NC(=O)[C@H](CC(N)=O)NC(=O)[C@H](CCc2ccccc2)NC(=O)[C@H](CCC(N)=O)NC(=O)[C@H](CC(C)C)NC(=O)[C@H](Cc2c[nH]c3ccccc23)NC1=O
B5: Cpd #90 (peptide)
peptide: Ac-SDCWLQWK(DOTA)CPFD-NH2
modifications: disulfide 3-9
SMILES: CC(=O)N[C@@H](CO)C(=O)N[C@@H](CC(=O)O)C(=O)N[C@H]1CSSC[C@@H](C(=O)N2CCC[C@H]2C(=O)N[C@@H](Cc2ccccc2)C(=O)N[C@@H](CC(=O)O)C(N)=O)NC(=O)[C@H](CCCCNC(=O)CN2CCN(CC(=O)O)CCN(CC(=O)O)CCN(CC(=O)O)CC2)NC(=O)[C@H](Cc2c[nH]c3ccccc23)NC(=O)[C@H](CCC(N)=O)NC(=O)[C@H](CC(C)C)NC(=O)[C@H](Cc2c[nH]c3ccccc23)NC1=O
B6: Cpd #91 (peptide)
peptide: Ac-SK(DOTA)CWLQWNCPFD-NH2
modifications: disulfide 3-9
SMILES: CC(=O)N[C@@H](CO)C(=O)N[C@@H](CCCCNC(=O)CN1CCN(CC(=O)O)CCN(CC(=O)O)CCN(CC(=O)O)CC1)C(=O)N[C@H]1CSSC[C@@H](C(=O)N2CCC[C@H]2C(=O)N[C@@H](Cc2ccccc2)C(=O)N[C@@H](CC(=O)O)C(N)=O)NC(=O)[C@H](CC(N)=O)NC(=O)[C@H](Cc2c[nH]c3ccccc23)NC(=O)[C@H](CCC(N)=O)NC(=O)[C@H](CC(C)C)NC(=O)[C@H](Cc2c[nH]c3ccccc23)NC1=O

Each binder was assayed against T1, Biotinylated human DLL3 (human, UniProt Q9NYJ7 27-492, biotinylated (site not stated)) (assay: SPR, biotin-hDLL3 on SA chip).
T1 construct: also called Delta-like ligand 3; Delta Like Canonical Notch Ligand 3
T1 sequence (looked up): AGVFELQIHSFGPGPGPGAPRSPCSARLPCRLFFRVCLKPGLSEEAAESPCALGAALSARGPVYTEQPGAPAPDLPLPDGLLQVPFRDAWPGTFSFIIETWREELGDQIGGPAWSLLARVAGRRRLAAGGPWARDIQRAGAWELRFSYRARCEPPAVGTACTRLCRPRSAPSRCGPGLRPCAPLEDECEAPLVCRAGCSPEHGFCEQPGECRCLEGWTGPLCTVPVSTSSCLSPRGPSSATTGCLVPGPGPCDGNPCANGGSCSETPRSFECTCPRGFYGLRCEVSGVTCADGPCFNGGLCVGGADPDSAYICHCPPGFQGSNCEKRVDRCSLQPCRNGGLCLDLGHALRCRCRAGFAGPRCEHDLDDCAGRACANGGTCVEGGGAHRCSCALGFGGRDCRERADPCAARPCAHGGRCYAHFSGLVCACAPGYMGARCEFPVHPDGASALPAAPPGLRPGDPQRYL

Binder	Kd
B1	4.94 nM
Ac-MSDCWLQWNC[αMeP]FD[dK](DOTA)-NH2 (disulfide 4-10) [Cpd #51]	2.6 nM
Ac-MSDCWLQWNC[Pro(4,4-F2)]FD[dK](DOTA)-NH2 (disulfide 4-10) [Cpd #52]	17 nM
B2	2.72 nM
B3	2.5 nM
B4	31.3 nM
Ac-MSDCWLQ[Trp(7-aza)]NCPFD[dK](DOTA)-NH2 (disulfide 4-10) [Cpd #64]	20.1 nM
Ac-MSDCWLQ[Phe(4-CF3)]NCPFD[dK](DOTA)-NH2 (disulfide 4-10) [Cpd #65]	32.4 nM
Ac-MSDCW[tBuAla]QWNCPFD[dK](DOTA)-NH2 (disulfide 4-10) [Cpd #67]	4.03 nM
Ac-MSDCW[Nle]QWNCPFD[dK](DOTA)-NH2 (disulfide 4-10) [Cpd #68]	15.8 nM
Ac-MSDCW[Cha]QWNCPFD[dK](DOTA)-NH2 (disulfide 4-10) [Cpd #69]	16.4 nM
Ac-MSDCW[Cba]QWNCPFD[dK](DOTA)-NH2 (disulfide 4-10) [Cpd #70]	6.95 nM
Ac-MSDCW[Chg]QWNCPFD[dK](DOTA)-NH2 (disulfide 4-10) [Cpd #71]	4.52 nM
{hexanoic acid}-SDCWLQWNCPFD[dK](DOTA)-NH2 (disulfide 3-9) [Cpd #75]	9.6 nM
Ac-[Chg]SDCWLQWNCPFD[dK](DOTA)-NH2 (disulfide 4-10) [Cpd #77]	7.4 nM
Ac-[dE]SDCWLQWNCPFD[dK](DOTA)-NH2 (disulfide 4-10) [Cpd #82]	17.1 nM
Ac-SDCWLK(DOTA)WNCPFD-NH2 (disulfide 3-9) [Cpd #87]	33.3 nM
Ac-SDCWLQWNCPFD[dK]([γGlu-DOTA])-NH2 (disulfide 3-9) [Cpd #88]	9.7 nM
B5	> 300 nM
B6	95.7 nM
{DOTA-Ahx}-SDCW[NMeL]QWNCPFD-NH2 (disulfide 3-9) [Cpd #92]	5.56 nM
Ac-[Chg]SDC[1Nal]LQWNC[dNMeA]FD[dK](DOTA)-NH2 (disulfide 4-10) [Cpd #94]	0.54 nM

From US20250186541A1, “DLL3 TARGETING PEPTIDES AND CONSTRUCTS THEREOF” (MARIANA ONCOLOGY INC., priority 2023, published 2025)
